Tests used:
Test in all cases: BIAcore SPR, koff against wild-type Fc
CD32B (FcγRII-B) = CD32B (FcγRII-B) (UniProt P31994)
CD32A^H = CD32A^H (UniProt P12318)
[1] = biological target: CD16A with Val at position 158 (human) (UniProt P08637)
[2] = biological target: CD16A with Phe at position 158 (human) (UniProt P08637)
CD16A with Phe at position 158 (human), sequence (P08637 17-208 limits assumed): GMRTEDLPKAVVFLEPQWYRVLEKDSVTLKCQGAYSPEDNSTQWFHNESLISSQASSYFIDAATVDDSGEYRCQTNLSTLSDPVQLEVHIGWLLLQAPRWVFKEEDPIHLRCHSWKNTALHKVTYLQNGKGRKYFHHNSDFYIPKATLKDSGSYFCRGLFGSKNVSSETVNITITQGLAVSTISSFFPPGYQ

CD32A^H, sequence (P12318 34-217 limits assumed): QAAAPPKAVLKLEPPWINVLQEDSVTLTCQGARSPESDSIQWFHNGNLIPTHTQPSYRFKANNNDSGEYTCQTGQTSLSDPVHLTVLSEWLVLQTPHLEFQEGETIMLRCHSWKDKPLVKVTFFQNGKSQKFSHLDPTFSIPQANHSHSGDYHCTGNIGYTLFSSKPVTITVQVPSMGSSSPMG
CD32B (FcγRII-B), sequence (P31994 43-217 limits assumed): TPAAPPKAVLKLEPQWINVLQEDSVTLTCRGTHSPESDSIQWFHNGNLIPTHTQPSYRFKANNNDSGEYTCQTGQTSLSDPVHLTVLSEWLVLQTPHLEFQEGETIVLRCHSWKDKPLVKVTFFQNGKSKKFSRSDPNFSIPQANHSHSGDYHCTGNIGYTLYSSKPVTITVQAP
CD16A with Val at position 158 (human), sequence (P08637 17-208 F176V limits assumed): as the sequence (P08637 17-208 limits assumed) above, with F160V counted along it

Substance	WT koff/mutant koff (CD32B (FcγRII-B))	WT koff/mutant koff (CD32A^H)	WT koff/mutant koff [1]	WT koff/mutant koff [2]
Fc mutant 2 (D270E)	0.4	2.2	1.3	
Fc mutant 3 (R292P)	0.3	0.7	2.4	1.6
Fc mutant 4 (S298N)	0.2			
Fc mutant 5 (Y300L)	1.2	2.9		1.2
Fc mutant 8 (P396L)	2.6	1.6	1.3	
Fc mutant 11 (R292P, V305I)	0.4	0.8		
Fc mutant 12 (F243L, R292P, Y300L)	0.6	1	7.4	4.6
Fc mutant 13 (F243L, R292P, V305I)	0.1	0.2	2.6	1.4
Fc mutant 14 (F243L, R292P, P396L)	0.4	1.4	6.3	
Fc mutant 16 (F243L, R292P, Y300L, P396L)	1.1	1.7	10.1	5.6
Fc mutant 17 (F243L, R292P, V305I, P396L)	0.4	0.8	4	2.3

Results, then the substance that gave them:

WT koff/mutant koff (CD32B (FcγRII-B))	WT koff/mutant koff (CD32A^H)	WT koff/mutant koff [1]	WT koff/mutant koff [2]	Substance
0.8	0.6	4.8		Fc mutant 1 (F243L)
1.2	1.3	0.9	0.6	Fc mutant 6 (V305I)
0.3	0.4	0.6	1.2	Fc mutant 7 (A330V)
1.6	1.5			Fc mutant 9 (F243L, P396L)
0.2	0.5	4		Fc mutant 10 (F243L, R292P)
0.9	1.5	1.9	1.9	Fc mutant 15 (R292P, V305I, P396L)
1.4	3.2	10.1	8.3	Fc mutant 18 (F243L, R292P, Y300L, V305I, P396L)

Source: patent US20190233539A1
